Consider one molecule from US7230094B2, “Neutral sphingomyelinase antisense ribozyme and uses thereof” (priority 2001, dated 2007).

Assay type in all cases: cell-based, human
For data set [1], the system named is N-SMase. In words: TNF-α and Fas ligand induced N-SMase activity in WT and mutant cells. To be noted: for Basal activity of N-SMase: unstimulated CC cells, 2.7±0.1 in MG63 control cells, ±S.D., N=3. As to the method:
FIGS. 4A–4B depict the effects of incubation with TNF-α (FIG. 4A) and Fas ligand (FIG. 4B) over time on the activity of N-SMase in mutant and WT cells. Confluent cultures of WT (MG-63) and mutant (CC) cells were incubated with serum free medium with or without TNF-α ([…]) or Fas ligand (1 ng/ml). At the indicated intervals, cells were harvested, centrifuged, and lysed in buffer containing 0.1% Triton™ X-100, 25 mM Tris (pH 7.4), 5 mM EDTA, 1 mM phenylmethylsulfonyl fluoride (PMSF), and 2 μg each of chymostatin, leupeptin, antipain, and pepstatin A. 100 μl of a reaction mixture containing 50 mM Tris (pH 7.4), 5 mM MgCl2, 0.05% Triton™ X-100, 5 mM dithiothreitol (DTT) and 10 nmol [^14C] sphingomyelin (100,000 cpm) was added to 5–10 μl of cell lysate (100 μg protein). The basal activity of N-SMase was 2.7±0.1 nmol/mg protein/hr in MG63 cells and 0.67±0.1 nmol/mg protein/hr in CC cells. These levels were defined as 100% activity. Error bars indicate ±S.D. (N=3).
Tumor necrosis factor alpha (TNF-α) is known to induce programmed cell death through stimulation of sphingomyelinase activity and generation of ceramide. This example describes the ability of the ribozyme directed against N-SMase to inhibit this pathway. The effects of incubation with TNF-α and Fas ligand over time on the activity of N-SMase in mutant and WT cells are shown in FIGS. 4A and 4B, respectively. Confluent cultures of WT (MG-63) and mutant (CC) cells were incubated with serum free medium with or without TNF-α ([…]) or Fas ligand (1 ng/ml), and the activity of N-SMase was determined by measuring the cleavage of [^14C]sphingomyelin. At 0, 10, 20, 30, 40, 50, and 60 minutes, cells were harvested, centrifuged, and lysed in buffer containing 0.1% Triton™ X-100, 25 mM Tris (pH 7.4), 5 mM EDTA, 1 mM phenylmethylsulfonyl fluoride (PMSF), and 2 μg each of chymostatin, leupeptin, antipain, and pepstatin A. 100 μl of a reaction mixture containing 50 mM Tris (pH 7.4), 5 mM MgCl2, 0.05% Triton™ X-100, 5 mM dithiothreitol (DTT) and 10 nmol [^14C]sphingomyelin (100,000 cpm) was added to 5–10 μl of cell lysate (100 μg protein). The basal activity of N-SMase was 2.7±0.1 nmol/mg protein/hr in MG63 cells and 0.67±0.1 nmol/mg protein/hr in CC cells. These levels were defined as 100% activity.

In data set [2] the test system is N-SMase. The data set is described as follows: Western immunoblot and densitometric analysis of N-SMase. The conditions noted are these: mutant CC cells vs WT, FIG. 3. As to the method: FIG. 3 depicts a western immunoblot assay and densitometric analysis of N-SMase. About 10 μg of partially purified N-SMase preparations from WT (MG-63) and mutant (CC) cells were solubilized and subjected to 7.5% polyacrylamide SDS gel electrophoresis. The proteins were then transferred to PVDF membranes and subjected to a western immunoblot assay employing an N-SMase antibody or β-actin antibody (control). The immunoreactive protein bands were then subjected to densitometric scanning.
Western immunoblot assay and densitometric analysis was used to quantify the level of N-SMase in WT and CC cells. About 10 μg of partially purified N-SMase preparations from WT (MG-63) and mutant (CC) cells were solubilized and subjected to 7.5% polyacrylamide SDS gel electrophoresis. The proteins were then transferred to PVDF membranes and subjected to a western immunoblot assay employing an N-SMase antibody. The immunoreactive protein bands were then subjected to densitometric scanning.
For orientation: A western blot detects proteins with antibodies after separation by electrophoresis.

Data set [3] relates to N-SMase. In words: Immunocytochemical analysis of cells, N-SMase antibody. To be noted: clone CC compared to untransfected (WT) and sham-transfected (LacZ) lines. As to the method: Wild-type (WT) MG-63 cells and MG-63 cells transfected with LacZ constructs (L-3) and ribozyme expression constructs for the inhibition of N-SMase expression (CC) were analyzed by immunocytochemistry. The antibodies either recognized epitopes in fibronectin (control) or N-SMase. The analysis was performed in duplicates for the MG-63 cell line and the two mutant colonies.

Data set [4] relates to caspase-3 and cytochrome-C release. In words: Caspase-3 and cytochrome-C release by western analysis and densitometry. The conditions noted are these: N-SMase-deficient cells compared to control (sham-transfected) cells. The procedure:
In order to determine a dose-response relationship between the concentration of TNF-α or FasL and apoptosis, western analysis was used to quantitate release of both caspase-3 (FIG. 9) and cytochrome-C (FIG. 10).
Immunoblots for the measurement of cytochrome-C and caspase-3 were carried out after incubation of cells with TNF-α (10 ng/ml) or FasL (1 ng/ml) for 48 hours. Cells were extracted with a buffer (20 mM Hepes pH 7.5, 10 mM KCl, 1.5 mM MgCl2, 5 mM EDTA, 5 mM DTT, 2 mM phenylmethylsulfonylfluoride, 1% NonidetP40, 0.5% sodium deoxycholate, 0.1% SDS, 2 μg/ml leupeptin, 2 μg/ml aprotinin, 0.5 μg/ml benzamindine, and 250 mM sucrose) on ice for 30 minutes. After centrifugation for 10 minutes at 10,000×g, the supernatant was used for western analysis with an antibody for cytochrome-C (Pharmingen, San Diego, Calif.). For assessment of caspase-3, samples were similarly processed in addition to passage through a 21-g needle prior to centrifugation. The western analysis was performed with a rabbit polyclonal IgG antibody to caspase-3 (Santa Cruz, Calif.) raises against an epitope corresponding to amino acids 1–277, representing the full-length precursor form of CPP-32 (caspase-3). For both caspase-3 and cytochrome-C, bands were quantified with densitometric analysis.

Data set [5] concerns ceramide production by N-SMase. The data set is described as follows: Ceramide level, modified diacylglycerol kinase assay. The conditions noted are these: for Production of ceramide in response to cytokine stimulation: ribozyme-transfected (N-SMase-deficient) cells compared to sham transfected cells, TNF-α 20 ng/ml or Fas-L 1 ng/ml, 24 hours.

B1: N-SMase ribozyme: U1 snRNA-derived hammerhead antisense ribozyme targeting N-SMase mRNA, expressed from vector pNSMRz; stably transfected MG63 clones CC and C-B (nucleic acid, listed as Homo sapiens)
chain: AUACUUACCUGGCAGGGGAGAUACCAUGAUCACGAAGGUGGUUUUCCCAGGGCGAGGCUUAUCCAUUGGCCUCCGGAUGUGCUGACCCCUGCGAUUUCCCCAAAUGUGGGAAACUCGACUGCAGAAUAUGUCAUCAUAUUGCCUGAUGAGUCCGUGAGGACGAAACCUCUUCACAUGAAAAAGUGGGGCUGCGUUCGCGCUUCCCCG
In the case of B1, the “N-SMase activity under cytokine stimulation” value in the data set on N-SMase [1] (ribozyme cells stimulated with TNF-α and Fas-L, sham-transfected cells 4.0) came out at 0.75 nmol/mg protein/hr. For the same molecule, in the data set on N-SMase [1] (ribozyme transfected cells, 0-60 min, FIG. 4A), the “Change of N-SMase activity after addition of TNF-α” value was “no significant difference”. Also, the “Basal activity of N-SMase” value in the data set with N-SMase [1] was 0.67±0.1 nmol/mg protein/hr; in the data set on N-SMase [1] (listed as antisense ribozyme), 0.67 nmol/mg protein/hr. The “Level of N-SMase by western immunoblot densitometry” value in the data set with N-SMase [2] is recorded as “greatly reduced”. Moreover, the “Immunohistochemical staining for N-SMase” value in the data set on N-SMase [3] is listed as “near absence”. Further, the “Dose-response of caspase-3 and cytochrome-C release to TNF-α and FasL” value in data set [4] is on record as “marked blunting of the response”. Moreover, the “Production of ceramide in response to cytokine stimulation” value in data set [5] (listed as antisense ribozyme) is given as “substantially no change”; in data set [5] (listed as ribozyme) it was “severely reduced”. In addition, the “Basal level of ceramide production” value in data set [5] (ribozyme-transfected CC cells, 2.63 in MG-63 control cells) is listed as 4.59 pmole/mg protein.
